For experiment [1], the target named is GST-CheD-F102E (Bacillus subtilis) (UniProt P40404). Briefly: pull-down; 80 µM GST-CheD or GST-CheD-F102E on glutathione beads; 100 µM CheC or receptor fragment added for 10 min; washed with TBS + 1% Triton X-100; eluted with glutathione; SDS-PAGE, Coomassie stain, densitometry.
For experiment [2], the target named is T1, CheC (Bacillus subtilis, UniProt P40403 1-209).
T1 construct: CheC, CheY-P phosphatase, Bacillus subtilis; also called pTM18 (pGEX-6P-2::cheC2); source: E. coli, overexpressed as GST-CheC, purified (GSTrap), GST removed with PreScission protease; not shown: GST, N-terminal, cleaved
T1 sequence (looked up): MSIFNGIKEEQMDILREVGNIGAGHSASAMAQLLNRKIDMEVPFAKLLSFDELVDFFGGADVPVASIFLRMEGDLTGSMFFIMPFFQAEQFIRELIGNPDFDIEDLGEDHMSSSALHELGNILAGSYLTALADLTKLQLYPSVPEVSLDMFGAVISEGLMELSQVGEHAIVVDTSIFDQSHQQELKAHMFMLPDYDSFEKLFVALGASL
Kind of experiment: SPR; Biacore 3000, NTA chip; 500 RU of GST-6xHis-CheD immobilised; CheC injected at different concentrations (80 µl, 20 µl/min); running buffer TKMD (50 mM Tris pH 8.0, 50 mM KCl, 5 mM MgCl2, 0.1 mM DTT); triplicate. The settings on record: both partners purified. Background: In SPR one partner is held on a chip, and binding of the other changes the refractive index at the surface.

Experiment [3] addresses T1, CheC. Kind of experiment: SPR; as a1, but with 20 µM CheY in the running buffer and in the injected CheC. As to conditions: both partners purified.
Experiment [4] deals with T1, CheC. Kind of experiment: SPR; as a1, but with 20 µM CheY and 5 mM acetyl phosphate (CheYp) in the running buffer and in the injected CheC. As to conditions: both partners purified.

Regarding “CheC (from UniProt P40403 1-209) (enzyme)”, the percent of the CheC bound by GST-CheD in experiment [1] came to 10%.

B1: GST-6xHis-CheD (enzyme, Bacillus subtilis, UniProt P40404 1-166, looked up)
chain: MSTTEAVVIKVGIADVKIARFPDTIRTSGLGSCVGLVLYDKEKQTAGLVHVMLPDSTLSKTAELNRAKYADTAVQTTIDMLIEAGCRKFALKAKLAGGSEMFKFKSTNDLMKIGPRNVLAIKEQLSLFNIPIISEDTGGSSGRTIEFEPKSCMLHIRTVKQGEKTI
notes: CheD, chemoreceptor glutamine deamidase, Bacillus subtilis; cheD gene amplified from OI1085 genomic DNA, cloned in pGEX-6P-2; Order of the tags by the printed name GST-6xHis-CheD: the 6xHis lies between GST and CheD; Held on the NTA chip by the 6xHis; also called pWY88 (pGEX-6P-2::6xHis-cheD2); source: E. coli, overexpressed, purified (GSTrap); not shown: GST, N-terminal, kept; 6xHis, N-terminal, …
Broadly, the Kd is the constant that tells how readily two partners part at equilibrium. Read a high Kd as weaker binding. The koff is the first-order rate constant of dissociation. A low value points to slow dissociation. The kon is the rate constant with which the complex forms. Low readings indicate slower complex formation, high ones faster complex formation. Turning to B1, the Kd stood at 3.95 µM in experiment [2], 7.01 µM in experiment [3] and 0.546 µM in experiment [4]. Also, the koff worked out at 0.0568 s⁻¹ in experiment [2], 0.0743 s⁻¹ in experiment [3] and 0.0976 s⁻¹ in experiment [4]. Further, the on-rate constant (kon) in experiment [2] was 14700 M⁻¹ s⁻¹; in experiment [3], 10600 M⁻¹ s⁻¹; in experiment [4] it was 179000 M⁻¹ s⁻¹.

Source of the values: article PMC3513319, “The Importance of the Interaction of CheD with CheC and the Chemoreceptors Compared to Its Enzymatic Activity during Chemotaxis in Bacillus subtilis” (PLoS ONE, 2012).
